Drawing on patent US20240343781A1 (published 2024), this text covers Kd for two molecules.

The target in this test is SARS-COV-2 D614G spike trimer (SARS-CoV-2, UniProt P0DTC2 14-1208). Briefly: SPR. (In SPR one partner is held on a chip, and binding of the other changes the refractive index at the surface.)

B1: engineered monoclonal antibody 12-19 (antibody, V domains shown)
VH: QVQLVESGGGVVQPGRSLRLSCEASGFTFNTYDMHWARQAPGKGLEWVAVIWYDGSNKFYADSVKGRFTISRDNSKNTLYLQMNSLRAEDTAVYYCARDRTPVYDILTGYYWPPPRVDGMDVWGQGTTVTVSS
VL: DNVMTQTPFSLSVTPGQPASISCKSSQSLLHSDGKTYLYWYLQKPGQSPQLLIYEVSNRFSGVPERFSGSGSGTDFTLKISRVEAEDVGVYYCMQSIQLPFTFGQGTKLEIK
The term Kd denotes the constant that tells how readily two partners part at equilibrium. Read a low Kd as a tighter complex. B1 displayed an equilibrium dissociation constant (Kd) of 9.35 nM.

B2: engineered monoclonal antibody 12-16 (antibody, V domains shown)
VH: QVQLVESGGGVVQPGRSLRLSCAASGFTFSNYGMHWVRQAPGKGLEWVAIISFDGSNRYYADSVKGRFTISRDNSKNTLYLQMDSLRAEDTAVYYCAKDLSFYYDISTGYYPQSYNSGTDVWGQGTTVTVSS
VL: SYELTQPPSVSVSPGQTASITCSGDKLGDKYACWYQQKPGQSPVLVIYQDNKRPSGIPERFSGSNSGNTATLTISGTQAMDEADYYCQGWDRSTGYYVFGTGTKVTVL
Turning to B2, the Kd was 1.6 nM.
